Laboratory results as given in patent publication US20150073033.

What was measured:
[1] = molecular target: purified recombinant GST-Bub3 (wild type) (UniProt O43684)
[2] = tested on: purified recombinant His-tagged WT histone H3
[3] = molecular target: purified GST-β-catenin (unphosphorylated) (UniProt P35222)
purified GST-β-catenin (unphosphorylated), sequence (P35222 whole entry): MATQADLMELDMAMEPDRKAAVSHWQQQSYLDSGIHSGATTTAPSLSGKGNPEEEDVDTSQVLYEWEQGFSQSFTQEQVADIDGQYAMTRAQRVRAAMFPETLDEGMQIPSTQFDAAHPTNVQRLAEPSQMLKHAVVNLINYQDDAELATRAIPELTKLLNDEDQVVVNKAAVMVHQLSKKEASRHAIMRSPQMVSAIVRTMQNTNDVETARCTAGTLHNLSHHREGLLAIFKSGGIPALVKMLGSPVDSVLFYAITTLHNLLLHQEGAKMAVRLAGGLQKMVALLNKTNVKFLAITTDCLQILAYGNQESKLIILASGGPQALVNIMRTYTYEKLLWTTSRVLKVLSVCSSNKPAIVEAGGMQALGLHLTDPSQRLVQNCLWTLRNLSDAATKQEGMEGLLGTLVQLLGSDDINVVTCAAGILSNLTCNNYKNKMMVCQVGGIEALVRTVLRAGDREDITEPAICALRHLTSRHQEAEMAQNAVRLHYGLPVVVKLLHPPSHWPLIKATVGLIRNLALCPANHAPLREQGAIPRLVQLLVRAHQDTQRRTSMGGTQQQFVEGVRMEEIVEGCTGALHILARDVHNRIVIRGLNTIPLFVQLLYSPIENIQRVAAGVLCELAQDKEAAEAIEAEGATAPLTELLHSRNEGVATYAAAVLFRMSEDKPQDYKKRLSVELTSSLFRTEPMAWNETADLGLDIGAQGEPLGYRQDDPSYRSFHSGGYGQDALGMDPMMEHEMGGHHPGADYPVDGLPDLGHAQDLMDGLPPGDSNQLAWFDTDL

purified recombinant GST-Bub3 (wild type), sequence (O43684 whole entry): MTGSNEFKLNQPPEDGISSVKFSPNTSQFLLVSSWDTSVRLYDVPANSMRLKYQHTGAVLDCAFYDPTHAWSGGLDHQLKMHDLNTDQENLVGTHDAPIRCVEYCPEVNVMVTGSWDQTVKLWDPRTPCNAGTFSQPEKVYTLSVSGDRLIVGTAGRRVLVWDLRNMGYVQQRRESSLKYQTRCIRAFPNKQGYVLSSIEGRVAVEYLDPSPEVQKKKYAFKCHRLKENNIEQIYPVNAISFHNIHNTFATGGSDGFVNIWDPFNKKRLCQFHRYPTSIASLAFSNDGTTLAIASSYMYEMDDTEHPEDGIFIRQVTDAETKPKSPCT

| Substance | in vitro protein kinase assay with PEP (anti-phospho-Tyr immunoblot) [1] | in vitro phosphorylation with PEP (anti-phospho-Thr and phospho-H3-T11 immunoblot) [2] | in vitro protein kinase assay (Tyr and Y333 phosphorylation by immunoblot) [3] |
| --- | --- | --- | --- |
| purified recombinant His-PKM2 (wild type) | PKM2, but not PKM2 K367M or PKM1, phosphorylated Bub3 | WT PKM2, but not PKM2 K367M kinase-dead mutant (Yang et al., 2011) or PKM1, phosphorylated WT histone H3 but not H3-T11A |  |
| purified active c-Src |  |  | active c-Src was able to phosphorylate WT β-catenin |
